Laboratory results published in PMC12714728 (2025).
Positions of bridges follow the written chain, without caps; N, C: chain ends. Non-standard residues stand in square brackets, D forms with d. No end group written: not given here.

Tests used:
Experiment in all cases: SPR
[1] = molecular target: T1, H1N1 A/New Caledonia/20/1999 hemagglutinin ectodomain, biotinylated HA0 (influenza A virus A/New …, biotin on the BirA site)
[2] = molecular target: T2, H1N1 A/California/07/2009 hemagglutinin ectodomain, biotinylated HA0 (influenza A virus A/California/07/2009 …, biotin on the BirA site)
[3] = molecular target: T3, H5N1 A/Vietnam/1203/2004 hemagglutinin ectodomain, biotinylated HA0 (influenza A virus A/Vietnam/1203/2004 …)
[4] = molecular target: T1, H1N1 A/New Caledonia/20/1999 …; remark: listed apart in the source
[5] = molecular target: T2, H1N1 A/California/07/2009 hemagglutinin …; remark: listed apart in the source
[6] = molecular target: T3, H5N1 A/Vietnam/1203/2004 hemagglutinin …; remark: listed apart in the source

LYEDPLGVAGGMG (non-template-based cyclic peptide (direct head-to-tail cyclization)) [cyclic peptide CP14] gave a Kd [1] of 0.64 µM, a Kd [2] of 1.07 µM and a Kd [3] of 2.74 µM.

PGLYEDPLGVAGGMG (also: cyclic peptide, ring closure not given here) [cyclic peptide CP6] showed a koff [4] of 0.42 s⁻¹, a koff [5] of 0.83 s⁻¹ and a koff [6] of 0.95 s⁻¹. It also gave a Kd [1] of 0.8 µM, a Kd [2] of 1.91 µM and a Kd [3] of 3.02 µM.

With [dP]PVSLYEDPLGVAGGMGVY (also: cyclic peptide, ring closure not given here) [cyclic peptide CP1] the koff [4] was 0.02 s⁻¹, the koff [5] was 0.01 s⁻¹ and the koff [6] was 0.14 s⁻¹. For the same binder, the Kd [1] was 0.02 µM and the Kd [3] was 1.8 µM.

B1: cyclic peptide CP3 (peptide)
chain: PPLYEDPLGVAGGMG
modifications: also: one Pro of the Pro-Pro template is D, which not given here, cyclic peptide, ring closure not given here
With B1 the koff [4] was 0.45 s⁻¹, the koff [5] was 1.07 s⁻¹ and the koff [6] was 0.76 s⁻¹. For the same binder, the Kd [1] was 1.18 µM, the Kd [2] was 2.39 µM and the Kd [3] was 2.04 µM.

With PGVSLYEDPLGVAGGMGVY (also: cyclic peptide, ring closure not given here) [cyclic peptide CP4] the koff [4] was 0.06 s⁻¹, the koff [5] was 0.04 s⁻¹ and the koff [6] was 0.32 s⁻¹. For the same binder, the Kd [1] was 0.36 µM, the Kd [2] was 0.12 µM and the Kd [3] was 0.29 µM.

Binder CYRDPLGVAGEMC (also: cyclic peptide, ring closure not given here) [cyclic peptide CP13] has a Kd [1] of 32 µM, a Kd [2] of 12 µM and a Kd [3] of 8.91 µM.

With P[dP]SLYEDPLGVAGGMGV (also: cyclic peptide, ring closure not given here) [cyclic peptide CP2] the koff [4] was 1.08 s⁻¹, the koff [5] was 3.48 s⁻¹ and the Kd [1] was 3.08 µM. It also gave a Kd [2] of 7.28 µM.

In the case of CLYRDPLGVAGGMGC (disulfide 1-15) [cyclic peptide CP8], the koff [4] is reported as 0.23 s⁻¹, the koff [5] is reported as 0.1 s⁻¹ and the koff [6] is reported as 0.98 s⁻¹. It also gave a Kd [1] of 0.85 µM, a Kd [2] of 0.33 µM and a Kd [3] of 0.32 µM.
